# Positions count from the first letter of the chain named.
# B1: ssDNA9 (ssDNA)
# DNA: GAAGGAGATATACATATGAGCCAGGC
# B2: ssDNA3 (ssDNA)
# DNA: GTGCTCGAGACCTTCCACCATC
# B3: ssDNA6 (ssDNA)
# DNA: CGATTAGCGGTCTGAATAGCGTGG
# B4: ssDNA8 (ssDNA)
# DNA: CCACGCTATTCAGACCGCTAATCG
# B5: ssDNA7 (ssDNA)
# DNA: GGTTTCAATCGCCTGCTGAATCGC
# B6: ssDNA5 (ssDNA)
# DNA: GCGATTCAGCAGGCGATTGAAACC
# B7: ssDNA1 (ssDNA)
# DNA: CGTGGCGAGCAGCAGCGC
# B8: Atto488-dsDNA (A488-DNA/A488-DNA') (dsDNA)
# DNA 1: TTAATTAAAGACTTCAAGCGG
# DNA 2: GCTTGAAGTCTTTAATTAATT
# B9: dsDNA (GFP-g/GFP-p) (dsDNA)
# DNA 1: GAACTTCAGGGTCAGCTTGGG
# DNA 2: CAAGCTGACCCTGAAGTTCTT
# B10: dsRNA (GFP-siRNA-g/GFP-siRNA-p) (dsRNA)
# RNA 1: GAACUUCAGGGUCAGCUUGGG
# RNA 2: CAAGCUGACCCUGAAGUUCUU
# modifications: last two 3' nucleotides deoxy on each strand
# B11: Atto488-ssDNA (A488-DNA) (ssDNA)
# DNA: TTAATTAAAGACTTCAAGCGG
# B12: ssDNA2 (ssDNA)
# DNA: CCTGGTGCGTGTGCACATGG
# B13: ssDNA4 (ssDNA)
# DNA: GGTGATGCGATGCTGAAAAGCGC
# Legend:
# OP (Artificial) = target: T1, OP (Artificial) (UniProt Q9XDM8); conditions: fluorescence quenching kinetics koff/kon
# T1 sequence: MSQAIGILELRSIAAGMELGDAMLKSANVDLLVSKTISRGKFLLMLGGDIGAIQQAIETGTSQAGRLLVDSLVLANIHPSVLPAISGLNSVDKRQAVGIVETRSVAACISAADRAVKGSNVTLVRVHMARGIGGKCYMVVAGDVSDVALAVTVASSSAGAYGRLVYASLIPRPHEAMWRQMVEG
# OTR501 (Artificial) = target: T2, OTR501 (Artificial) (UniProt Q9XDM8); conditions: fluorescence quenching kinetics koff/kon
# T2 sequence: T1 sequence with R39P
# OTR502 (Artificial) = target: T3, OTR502 (Artificial) (UniProt Q9XDM8); conditions: fluorescence quenching kinetics koff/kon
# T3 sequence: T1 sequence with R103W
# OTR503 (Artificial) = target: T4, OTR503 (Artificial) (UniProt Q9XDM8); conditions: fluorescence quenching kinetics koff/kon
# T4 sequence: T1 sequence with R163L
# OP [1] = target: T5, OP (Artificial, UniProt Q9XDM8 SEQ:1-184); assay: EMSA; 2:1 ssDNA to capsid; conditions: tags: C-terminal His6; chain copies: 24 (self-assembled cage)
# T5 chain: T1 sequence
# OP [2] = target: T5, OP; assay: EMSA; 1:1 complex in PBS; released over 6 h by 26 uM tRNA at 37 C; conditions: tags: C-terminal His6; chain copies: 24 (self-assembled cage); label: Atto488 5'
# O3-33 [3] = target: T6, O3-33 (Artificial, UniProt Q9XDM8 SEQ:1-184, R11T,R39P,R66E,R103W,R130F,R163L); assay: EMSA; 2 equiv. O3-33; conditions: tags: C-terminal His6, pET29b(+)-O3-33 (David Baker), PDB 3VCD, chain copies: 24 (self-assembled cage)
# T6 sequence: T1 sequence with R11T, R39P, R66E, R103W, R130F, R163L
# OP [4] = target: T5, OP; assay: EMSA; PBS, room temp; near complete binding at 0.5 equiv. cage, 1.98 guests per cage by SEC; conditions: tags: C-terminal His6; chain copies: 24 (self-assembled cage)
# OP-NoHis6 = target: T7, OP-NoHis6 (Artificial, UniProt Q9XDM8 SEQ:1-188); assay: EMSA; 1:1 molar ratio; siRNA encapsulation also by SEC; conditions: tags: no His6 (GS C-terminus); chain copies: 24 (self-assembled cage, inferred); siRNA duplex with 2-nt 3' DNA overhangs
# T7 chain: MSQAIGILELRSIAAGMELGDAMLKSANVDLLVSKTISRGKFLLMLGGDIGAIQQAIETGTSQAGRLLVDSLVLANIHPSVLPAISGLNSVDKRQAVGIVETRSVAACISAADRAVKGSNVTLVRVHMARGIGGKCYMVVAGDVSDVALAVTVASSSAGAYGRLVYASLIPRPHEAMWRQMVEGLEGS
# OP [5] = target: T5, OP; assay: EMSA; PBS, room temp; near complete binding at 0.5 equiv. cage, 1.97 guests per cage by SEC; conditions: tags: C-terminal His6; chain copies: 24 (self-assembled cage); siRNA duplex with 2-nt 3' DNA overhangs
# OTR101 = target: T8, OTR101 (Artificial, UniProt Q9XDM8 SEQ:1-184); assay: EMSA; also no binding by fluorescence quenching; conditions: tags: C-terminal His6; chain copies: 24 (inferred); label: Atto488 5'
# T8 chain: T1 sequence with R11T, R66E, R103W, R130F, R163L
# OTR203 = target: T9, OTR203 (Artificial, UniProt Q9XDM8 SEQ:1-184); assay: EMSA; also no binding by fluorescence quenching; conditions: tags: C-terminal His6; chain copies: 24 (inferred); label: Atto488 5'
# T9 chain: T1 sequence with R66E, R103W, R130F, R163L
# OTR202 = target: T10, OTR202 (Artificial, UniProt Q9XDM8 SEQ:1-184); assay: EMSA; also no binding by fluorescence quenching; conditions: tags: C-terminal His6; chain copies: 24 (inferred); label: Atto488 5'
# T10 chain: T1 sequence with R39P, R66E, R130F, R163L
# OTR201 = target: T11, OTR201 (Artificial, UniProt Q9XDM8 SEQ:1-184); assay: EMSA; also no binding by fluorescence quenching; conditions: tags: C-terminal His6; chain copies: 24 (inferred); label: Atto488 5'
# T11 chain: T1 sequence with R11T, R66E, R103W, R163L
# OTR502 = target: T12, OTR502 (Artificial, UniProt Q9XDM8 SEQ:1-184); assay: fluorescence quenching kinetics koff/kon, PBS, room temp; conditions: tags: C-terminal His6; chain copies: 24 (inferred); label: Atto488 5'
# T12 chain: T1 sequence with R103W
# OTR402 = target: T13, OTR402 (Artificial, UniProt Q9XDM8 SEQ:1-184); assay: as above; conditions: tags: C-terminal His6; chain copies: 24 (inferred); label: Atto488 5'
# T13 chain: T1 sequence with R39P, R130F
# OTR302 = target: T14, OTR302 (Artificial, UniProt Q9XDM8 SEQ:1-184); assay: as above; conditions: tags: C-terminal His tag; chain copies: 24 (inferred); label: Atto488 5'
# T14 chain: T1 sequence with R66E, R103W, R163L
# OTR501 = target: T15, OTR501 (Artificial, UniProt Q9XDM8 SEQ:1-184); assay: as above; conditions: tags: C-terminal His6; chain copies: 24 (inferred); label: Atto488 5'
# T15 chain: T1 sequence with R39P
# OTR301 = target: T16, OTR301 (Artificial, UniProt Q9XDM8 SEQ:1-184); assay: as above; conditions: tags: C-terminal His6; chain copies: 24 (inferred); label: Atto488 5'
# T16 chain: T1 sequence with R11T, R39P, R66E
# OTR401 = target: T17, OTR401 (Artificial, UniProt Q9XDM8 SEQ:1-184); assay: as above; conditions: tags: C-terminal His6; chain copies: 24 (inferred); label: Atto488 5'
# T17 chain: T1 sequence with R66E, R163L
# OTR503 = target: T18, OTR503 (Artificial, UniProt Q9XDM8 SEQ:1-184); assay: as above; conditions: tags: C-terminal His6; chain copies: 24 (inferred); label: Atto488 5'
# T18 chain: T1 sequence with R163L
# O3-33 [6] = target: T6, O3-33; assay: EMSA; PBS, room temp; also no binding by fluorescence quenching; conditions: tags: C-terminal His6; pET29b(+)-O3-33 (David Baker), PDB 3VCD; chain copies: 24 (self-assembled cage); label: Atto488 5'
# OP [7] = target: T5, OP; assay: fluorescence quenching kinetics koff/kon, PBS, room temp; p321 gives (2.4±0.3)e-10; conditions: tags: C-terminal His6; chain copies: 24 (self-assembled cage); label: Atto488 5'
molecule,measurement,setting,value
hpDNA (Atto488-hairpin DNA),Kd,OP (Artificial),1.21 nM
same,Kd,OTR501 (Artificial),0.39 nM
same,Kd,OTR502 (Artificial),0.684 nM
same,Kd,OTR503 (Artificial),0.184 nM
B1,binding result,OP [1],binds
B2,binding result,OP [1],binds
B3,binding result,OP [1],binds
B4,binding result,OP [1],binds
B5,binding result,OP [1],binds
B6,binding result,OP [1],binds
B7,binding result,OP [1],binds
B8,binding result,OP [2],binds
B9,binding result,O3-33 [3],no binding
same,binding result,OP [4],binds
B10,binding result,O3-33 [3]; siRNA duplex with 2-nt 3' DNA overhangs,no binding
same,binding result,OP-NoHis6,binds
same,binding result,OP [5],binds
B11,binding result,OTR101,no binding
same,binding result,OTR203,no binding
same,binding result,OTR202,no binding
same,binding result,OTR201,no binding
same,Kd,OTR502,0.289 nM
same,Kd,OTR402,0.248 nM
same,Kd,OTR302,8.59 nM
same,Kd,OTR501,0.13 nM
same,Kd,OTR301,2.12 nM
same,Kd,OTR401,16.1 nM
same,Kd,OTR503,0.609 nM
same,binding result,O3-33 [6],no binding
same,Kd,OP [7],0.242 nM
B12,binding result,OP [1],binds
B13,binding result,OP [1],binds

# Source: patent US20210163540, “POLYPEPTIDES SELF-ASSEMBLING INTO NANOPARTICLES” (ETH ZÜRICH, published 2021)
